# Experimental data published in US20220348664A1.
# Key:
# [1] = molecular target: human LAG-3 ECD with mouse Fc tag (W339-hPro1.ECD.mFc) (human) (UniProt P18627); assay: ELISA competition, blocking of mouse Fc-tagged LAG-3 binding to coated human FGL-1 (competitor FGL-1)
# [2] = molecular target: human LAG-3 protein (SPR analyte) (human) (UniProt P18627); assay: SPR (Biacore 8K), antibody captured on anti-human IgG Fc chip, antigen as analyte, 1:1 fit
# [3] = molecular target: human LAG-3, full length, on cells (W339-FlpIn293.hPro1.A3) (human) (UniProt P18627); assay: FACS on human LAG-3-expressing 293 cells, PE anti-human IgG detection
# Chain of human LAG-3, full length, on cells (W339-FlpIn293.hPro1.A3) (human) (P18627 23-525): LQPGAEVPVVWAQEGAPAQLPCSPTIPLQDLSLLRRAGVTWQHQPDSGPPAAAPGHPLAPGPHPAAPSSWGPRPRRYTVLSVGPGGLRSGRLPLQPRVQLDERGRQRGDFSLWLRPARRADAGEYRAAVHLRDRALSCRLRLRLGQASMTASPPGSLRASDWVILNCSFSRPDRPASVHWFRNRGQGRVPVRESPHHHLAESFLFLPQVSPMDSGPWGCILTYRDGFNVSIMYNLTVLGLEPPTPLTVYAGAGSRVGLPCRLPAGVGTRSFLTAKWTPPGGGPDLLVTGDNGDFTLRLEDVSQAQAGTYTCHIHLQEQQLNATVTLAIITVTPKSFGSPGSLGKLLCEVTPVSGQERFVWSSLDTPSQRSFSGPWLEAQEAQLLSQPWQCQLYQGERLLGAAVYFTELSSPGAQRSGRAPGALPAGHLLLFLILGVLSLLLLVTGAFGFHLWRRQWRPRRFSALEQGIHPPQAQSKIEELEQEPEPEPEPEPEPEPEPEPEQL
# [4] = molecular target: cynomolgus LAG-3 protein (Sino-90841-C08H) (cynomolgus); assay: ELISA, cynomolgus LAG-3-His captured by coated anti-His, HRP anti-human IgG detection
# [5] = molecular target: human LAG-3 ECD with mouse Fc tag (W339-hPro1.ECD.mFc) (human) (UniProt P18627); assay: FACS competition, blocking of mFc-tagged LAG-3 binding to MHC-II on Raji cells (competitor MHC-II)
# [6] = molecular target: human LAG-3 ECD with mouse Fc tag (W339-hPro1.ECD.mFc) (human) (UniProt P18627); assay: FACS competition: antibody pre-incubated with mFc-tagged LAG-3, binding of LAG-3 to MHC-II on Raji cells detected with anti-mouse IgG Fc-PE; Top is the upper plateau of the LAG-3 signal
# [7] = molecular target: human LAG-3 ECD with mouse Fc tag (W339-hPro1.ECD.mFc) (human) (UniProt P18627); assay: ELISA, human LAG-3 ECD-mFc captured by coated goat anti-mouse F(ab)2, HRP anti-human IgG detection
# [8] = molecular target: mouse PD-L1 protein (SPR analyte) (mouse) (UniProt Q9EP73); assay: SPR (Biacore 8K), antibody captured on anti-human IgG Fc chip, antigen as analyte, 1:1 fit
# Chain of mouse PD-L1 protein (SPR analyte) (mouse) (Q9EP73 19-239 limits assumed): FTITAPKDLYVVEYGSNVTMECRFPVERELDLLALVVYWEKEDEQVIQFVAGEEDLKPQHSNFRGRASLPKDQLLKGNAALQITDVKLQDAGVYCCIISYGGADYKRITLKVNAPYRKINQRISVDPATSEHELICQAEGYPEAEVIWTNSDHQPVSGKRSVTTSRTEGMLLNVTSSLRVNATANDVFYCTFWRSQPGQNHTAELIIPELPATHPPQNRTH
# [9] = molecular target: cyno PD-L1 protein (SPR analyte) (cynomolgus) (UniProt G7PSE7); assay: as above
# Chain of cyno PD-L1 protein (SPR analyte) (cynomolgus) (G7PSE7 entry or part of it): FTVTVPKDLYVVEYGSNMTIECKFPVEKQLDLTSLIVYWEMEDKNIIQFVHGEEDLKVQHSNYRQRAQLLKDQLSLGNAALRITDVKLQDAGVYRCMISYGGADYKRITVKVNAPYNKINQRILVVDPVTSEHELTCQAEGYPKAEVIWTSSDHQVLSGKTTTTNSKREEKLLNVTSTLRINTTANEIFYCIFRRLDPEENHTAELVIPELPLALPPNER
# [10] = molecular target: human PD-L1 protein (SPR analyte) (human) (UniProt Q9NZQ7); assay: as above
# Chain of human PD-L1 protein (SPR analyte) (human) (Q9NZQ7 19-238 limits assumed): as the sequence (G7PSE7 entry or part of it) above, with T33A, S34A, N62S, Q68R, R82Q, L173F, A185T, I192T, L215H counted along it
# [11] = molecular target: human PD-L1 ECD with mouse Fc tag (W315-hPro1.ECD.mFc) (human) (UniProt Q9NZQ7); assay: ELISA, plate coated with human PD-L1 ECD-mFc, HRP anti-human IgG detection
# Chain of human PD-L1 ECD with mouse Fc tag (W315-hPro1.ECD.mFc) (human) (Q9NZQ7 19-238): as the sequence (G7PSE7 entry or part of it) above, with T33A, S34A, N62S, Q68R, R82Q, L173F, A185T, I192T, L215H counted along it
# [12] = molecular target: cynomolgus PD-L1 ECD with His tag (W315-cynoPro1.ECD.His) (cynomolgus) (UniProt G7PSE7); assay: ELISA, plate coated with cynomolgus PD-L1 ECD-His, HRP anti-human IgG detection
# Chain of cynomolgus PD-L1 ECD with His tag (W315-cynoPro1.ECD.His) (cynomolgus) (G7PSE7 entry or part of it): as the sequence (G7PSE7 entry or part of it) above
# [13] = molecular target: mouse PD-L1 ECD with mouse Fc tag (W315-mPro1.ECD.mFc) (mouse) (UniProt Q9EP73); assay: ELISA, plate coated with mouse PD-L1 ECD-mFc, HRP anti-human IgG detection
# Chain of mouse PD-L1 ECD with mouse Fc tag (W315-mPro1.ECD.mFc) (mouse) (Q9EP73 19-239): as the sequence (Q9EP73 19-239 limits assumed) above
# [14] = molecular target: human PD-L1, full length, on CHO-K1 cells (W315-CHO-K1.hPro1.C11) (human) (UniProt Q9NZQ7); assay: FACS on human PD-L1-expressing CHO-K1 cells, PE anti-human IgG detection
# Chain of human PD-L1, full length, on CHO-K1 cells (W315-CHO-K1.hPro1.C11) (human) (Q9NZQ7 19-290): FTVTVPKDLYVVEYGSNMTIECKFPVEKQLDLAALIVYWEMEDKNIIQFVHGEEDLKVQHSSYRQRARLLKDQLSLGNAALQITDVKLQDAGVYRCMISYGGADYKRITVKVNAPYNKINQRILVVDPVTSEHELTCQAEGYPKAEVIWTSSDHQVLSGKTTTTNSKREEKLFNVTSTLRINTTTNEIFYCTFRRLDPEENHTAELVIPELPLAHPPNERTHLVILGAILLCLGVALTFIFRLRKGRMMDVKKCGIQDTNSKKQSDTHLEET
# Chain of human LAG-3 ECD with mouse Fc tag (W339-hPro1.ECD.mFc) (human) (P18627 23-450): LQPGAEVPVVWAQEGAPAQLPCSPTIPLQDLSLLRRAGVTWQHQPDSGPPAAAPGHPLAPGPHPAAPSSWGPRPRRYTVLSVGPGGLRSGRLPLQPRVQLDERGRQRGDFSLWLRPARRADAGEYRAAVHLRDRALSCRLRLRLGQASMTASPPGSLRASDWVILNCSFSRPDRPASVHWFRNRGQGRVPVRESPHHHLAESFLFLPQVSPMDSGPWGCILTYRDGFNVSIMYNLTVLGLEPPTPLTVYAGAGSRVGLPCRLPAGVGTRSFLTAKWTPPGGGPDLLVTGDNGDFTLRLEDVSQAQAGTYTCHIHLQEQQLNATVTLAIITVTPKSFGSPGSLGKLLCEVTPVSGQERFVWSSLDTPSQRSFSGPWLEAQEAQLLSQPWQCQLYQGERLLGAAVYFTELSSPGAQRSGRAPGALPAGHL
# Chain of human LAG-3 protein (SPR analyte) (human) (P18627 23-450 limits assumed): as the sequence (P18627 23-450) above
substance,measurement,setting,value
WBP339-BMK1 (25F7) (antibody),IC50,[1],6.37 nM
same,Kd,[2],0.62 nM
same,koff,[2],0.000315 s⁻¹
same,kon,[2],508000 M⁻¹ s⁻¹
same,EC50,[3],0.237 nM
same,Top,[3],1180 MFI
same,EC50,[4],3.79 nM
same,IC50,[5],1.88 nM
same,Top,[6],2910 MFI
same,EC50,[7],0.22 nM
WBP315-BMK8 (Atezolizumab) (antibody),Kd,[8],2.31 nM
same,Kd,[9],6.29 nM
same,Kd,[10],0.0794 nM
same,EC50,[11],0.035 nM
same,Top,[11],2.45 OD450-OD540
same,EC50,[12],0.053 nM
same,Top,[12],1.98 OD450-OD540
same,EC50,[13],0.04 nM
same,EC50,[14],0.208 nM
same,Top,[14],8790 MFI
